Each block holds one molecule with its values, some of them ahead of it.
Key:
[1] = biological target: T1, Recombinant human ERα (human, UniProt P03372 1-595)
T1 construct: recombinant human ERα, bought; also called recombinant hERα; source: bought: Life Technologies
T1 sequence (looked up): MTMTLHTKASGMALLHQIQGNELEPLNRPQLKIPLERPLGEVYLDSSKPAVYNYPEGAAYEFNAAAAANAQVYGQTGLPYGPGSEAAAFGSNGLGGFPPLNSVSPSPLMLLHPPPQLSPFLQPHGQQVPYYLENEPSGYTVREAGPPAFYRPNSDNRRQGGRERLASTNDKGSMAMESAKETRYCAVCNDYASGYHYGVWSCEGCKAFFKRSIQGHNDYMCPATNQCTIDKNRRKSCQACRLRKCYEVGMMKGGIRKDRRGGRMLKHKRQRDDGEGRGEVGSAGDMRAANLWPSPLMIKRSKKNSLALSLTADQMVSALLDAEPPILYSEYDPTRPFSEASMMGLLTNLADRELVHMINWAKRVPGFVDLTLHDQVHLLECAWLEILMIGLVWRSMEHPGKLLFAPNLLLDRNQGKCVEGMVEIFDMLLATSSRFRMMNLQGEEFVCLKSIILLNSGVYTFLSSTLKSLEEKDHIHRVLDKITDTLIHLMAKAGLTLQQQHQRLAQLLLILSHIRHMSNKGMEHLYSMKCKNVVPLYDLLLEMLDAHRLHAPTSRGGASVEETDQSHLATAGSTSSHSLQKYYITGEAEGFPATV

[2] = biological target: T1, Recombinant human ERα; assay: pull-down; competition: 10 μg MBP-Tab2(406–531) preincubated 1 h at 4°C with synthetic Tab2 peptides (10 μM each, or Tab2-pept3 100 nM to 10 μM), then recombinant hERα (1 nM) 1.5 h at 4°C, amylose resin, immunoblot; settings: both partners purified
[3] = biological target: T1, Recombinant human ERα; assay: pull-down; competition screening: MBP-Tab2(406–531) and recombinant hERα (1 nM) with or without in vitro translated fragments of Tab2(406–531); the pair that is blocked; settings: both partners purified

proliferation (bromo-deoxyuridine incorporation) of MCF7 TamR cells in 1 μM 4OHT, peptide 1 to 100 μM, 24 h; the peptide is meant to interfere with Tab2/ERα [1]: 50 to 70 µM
Molecule: TAT-Tab2-pept3 (from UniProt Q9NYJ8 480-496) (peptide)

binding result [2]: binds
B1: Tab2-pept3 (peptide, UniProt Q9NYJ8 480-496, looked up)
peptide: VVSPTFELTNLLNHPDH
notes: 17-aa synthetic peptide mimicking aa; 480–496 of human Tab2, a portion of Fragment 4; includes the LTNLL motif; also called Tab2 mimic peptide; SRID peptide; source: synthetic peptide (microwave-assisted synthesis, RP-HPLC purified)

binding result [3]: binds
B2: MBP-Tab2(406–531) (domain or fragment, human, UniProt Q9NYJ8 406-531, looked up)
chain: TLFISTNSGASAASRNMSGQVSMGPAFIHHHPPKSRAIGNNSATSPRVVVTQPNTKYTFKITVSPNKPPAVSPGVVSPTFELTNLLNHPDHYVETENIQHLTDPTLAHVDRISETRKLSMGSDDAA
notes: human Tab2, aa 406–531 (central domain); also called MBP-406-531Tab2; 406-531Tab2; source: bacteria, purified MBP fusion (pMALc2)
